Assay [1] has as its target T1, HCoV-OC43 trimeric S protein (amino acids 12-1299) with T4 foldon, histidine tag and strep-tag (HCoV-OC43, UniProt P36334 12-1291).
T1 chain: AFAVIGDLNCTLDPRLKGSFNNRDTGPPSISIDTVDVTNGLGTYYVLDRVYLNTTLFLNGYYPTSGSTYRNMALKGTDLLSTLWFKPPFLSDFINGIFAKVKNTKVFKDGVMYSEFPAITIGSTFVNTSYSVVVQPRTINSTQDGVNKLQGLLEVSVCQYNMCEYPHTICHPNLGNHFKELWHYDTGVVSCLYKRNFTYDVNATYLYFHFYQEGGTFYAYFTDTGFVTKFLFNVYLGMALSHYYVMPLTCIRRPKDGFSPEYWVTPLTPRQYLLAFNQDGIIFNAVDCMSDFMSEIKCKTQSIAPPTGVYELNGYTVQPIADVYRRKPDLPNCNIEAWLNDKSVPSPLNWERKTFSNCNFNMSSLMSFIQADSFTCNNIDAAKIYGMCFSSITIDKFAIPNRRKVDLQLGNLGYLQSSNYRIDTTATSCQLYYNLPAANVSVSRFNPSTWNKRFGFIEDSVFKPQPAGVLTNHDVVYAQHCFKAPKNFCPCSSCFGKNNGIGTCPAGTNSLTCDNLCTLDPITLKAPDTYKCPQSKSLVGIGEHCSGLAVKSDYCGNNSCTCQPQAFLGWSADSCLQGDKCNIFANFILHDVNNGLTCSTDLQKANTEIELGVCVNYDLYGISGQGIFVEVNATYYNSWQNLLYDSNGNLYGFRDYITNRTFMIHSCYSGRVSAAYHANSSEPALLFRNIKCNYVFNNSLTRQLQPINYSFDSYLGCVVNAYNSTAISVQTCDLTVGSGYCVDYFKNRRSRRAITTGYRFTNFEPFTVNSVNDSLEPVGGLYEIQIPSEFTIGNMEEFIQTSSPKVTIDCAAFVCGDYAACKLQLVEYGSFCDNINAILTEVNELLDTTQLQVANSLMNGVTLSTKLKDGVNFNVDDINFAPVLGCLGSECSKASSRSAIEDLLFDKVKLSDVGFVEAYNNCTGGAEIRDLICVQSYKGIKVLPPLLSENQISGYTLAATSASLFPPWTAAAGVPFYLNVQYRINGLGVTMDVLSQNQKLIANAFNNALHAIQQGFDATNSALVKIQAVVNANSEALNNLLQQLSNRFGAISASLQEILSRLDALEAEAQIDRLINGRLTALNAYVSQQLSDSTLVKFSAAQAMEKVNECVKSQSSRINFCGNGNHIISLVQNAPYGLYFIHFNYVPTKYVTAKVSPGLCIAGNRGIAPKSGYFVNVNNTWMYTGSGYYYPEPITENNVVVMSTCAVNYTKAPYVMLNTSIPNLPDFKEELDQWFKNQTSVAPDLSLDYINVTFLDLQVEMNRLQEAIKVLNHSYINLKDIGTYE
Put plainly: ELISA on coated S-trimeric antigen, anti-human IgG-HRP [Human IgG1, NT-108]. (In general: In an ELISA, binding on a coated surface is turned into a signal by an enzyme label.)

The target of assay [2] is T2, HCoV-229E trimeric S protein (amino acids 12-1109) with T4 foldon, histidine tag and strep-tag (HCoV-229E, UniProt P15423 12-1112).
T2 chain: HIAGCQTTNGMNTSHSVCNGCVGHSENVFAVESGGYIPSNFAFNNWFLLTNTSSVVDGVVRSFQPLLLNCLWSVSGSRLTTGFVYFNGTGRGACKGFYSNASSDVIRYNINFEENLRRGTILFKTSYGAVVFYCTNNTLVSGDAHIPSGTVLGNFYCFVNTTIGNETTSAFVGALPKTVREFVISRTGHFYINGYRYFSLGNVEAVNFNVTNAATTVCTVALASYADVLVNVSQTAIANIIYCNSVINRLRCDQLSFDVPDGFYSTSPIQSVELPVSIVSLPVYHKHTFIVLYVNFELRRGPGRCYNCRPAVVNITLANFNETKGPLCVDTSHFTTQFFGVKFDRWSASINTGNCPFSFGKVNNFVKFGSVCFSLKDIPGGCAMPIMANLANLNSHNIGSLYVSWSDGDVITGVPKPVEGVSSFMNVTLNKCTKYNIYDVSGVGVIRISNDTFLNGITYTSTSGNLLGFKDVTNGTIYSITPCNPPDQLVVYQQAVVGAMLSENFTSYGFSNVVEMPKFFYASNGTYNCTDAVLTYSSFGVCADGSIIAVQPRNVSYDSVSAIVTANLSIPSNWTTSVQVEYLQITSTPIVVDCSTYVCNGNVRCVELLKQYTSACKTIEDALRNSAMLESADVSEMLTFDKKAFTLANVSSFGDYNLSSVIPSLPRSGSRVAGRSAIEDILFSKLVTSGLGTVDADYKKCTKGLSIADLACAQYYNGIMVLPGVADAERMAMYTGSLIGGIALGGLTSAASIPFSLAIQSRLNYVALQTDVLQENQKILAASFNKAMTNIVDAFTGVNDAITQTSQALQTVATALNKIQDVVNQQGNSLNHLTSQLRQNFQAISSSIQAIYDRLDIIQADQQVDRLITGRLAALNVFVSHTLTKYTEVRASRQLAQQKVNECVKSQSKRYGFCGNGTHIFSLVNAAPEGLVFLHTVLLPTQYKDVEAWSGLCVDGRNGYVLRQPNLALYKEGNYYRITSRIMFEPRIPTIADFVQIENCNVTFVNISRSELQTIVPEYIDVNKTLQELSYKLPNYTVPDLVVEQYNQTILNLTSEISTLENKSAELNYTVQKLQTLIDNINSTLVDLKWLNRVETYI
Described as above.

The results in this text go back to patent publication US20240287161A1 (NATIONAL UNIVERSITY CORPORATION TOTTORI UNIVERSITY, published 2024).

B1: NT-108 (recombinant human IgG1/kappa antibody) (antibody, V domains shown)
VH: EVQLQQSGPGLVKPSQTLSLTCSISGDSVSSNSAAWNWIRQSPSRGLEWLGRTYYRSKWYNDYAGTVKSRIAINPDTSKNQFSLHLNSVTPEDTAVYFCARVISVAGYAFDIWGQGTMVTVSS
VL: EIVLTQSPGTLSLSPGERATLSCRASQSVSSTFLAWYQQKPGQAPRLLIYGASYMATGIPDRFSGSGSGTDFTLTISRLEPEDFAVYYCQQYGSSLTFGGGTKLEIK
With B1, the binding result in assay [1] and in assay [2] was “no binding (tested: 1000 ng/ml)” throughout.
